This passage reports amyloid nucleation score results from the supplement of paper PMC12042874.

± gives the uncertainty stated by the source.

The nature of the data set: amyloid nucleation score (Sup35N fusion, yeast selection) (log enrichment); library NNK2; higher = more nucleation; inactive = no reads after selection. Summed up: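 On medium lacking adenine and uracil, psi-negative yeast expressing peptides of 20 random codons fused to Sup35N were grown 7 days at 30°C after a 24-hour induction with 100 μM copper sulfate. Illumina sequencing of input and output plasmid inserts gave the reads, and sequences under 100 input reads were excluded. The nucleation score is the DiMSum log enrichment of output over input reads, centred on the mode score of non-aggregating sequences.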
Substance HWTYTFRLNSSSSIYQNCSD came in with an amyloid nucleation score of -0.71 ± 1.
The same measure for FGFWDLMSCTSRMGTIIRLY: “inactive”; for NIPRRGIVGWTAL: “inactive”; for RIISCRN: 0.331 ± 0.43.
The figure for LWFKCGHSIQGLVRVTESGS is -0.15 ± 0.27; for YISRILYHNGKSDRDGQRDY it is -0.119 ± 0.65; for SCCRGEF it is -0.235 ± 0.61.
The same measure for FNVSYSISMMLKRGVCAHCW: 6.038 ± 0.034.
Consider TSFNQELEFFLCGGDVDCNR, for which the amyloid nucleation score was -1.17 ± 1.1.
The same measure for AGYDATW: 0.461 ± 0.65; for ASLSAFWSLTIVRVLPDKQV: 0.722 ± 0.43.
In turn, LLNCNCIVV had an amyloid nucleation score of 8.569 ± 0.031.
The figure for LTNCRIVLSLNQARVRIESI is 0.218 ± 0.8; for PMYRILNSTKESSGFALRGP it is -0.952 ± 0.45; for FLEQFVMSLT it is -0.752 ± 0.44.
The figure for IMMQDWGIGFAFIGSPCRCD is 9.01 ± 0.048; for TFLSHEGRGLRCLYYHMMPG it is 3.79 ± 0.14; for YGIRYYICKFMLKSFICSWY it is -1.33 ± 1.1.
The substance LKFRRYVCKVLWEAYG registered an amyloid nucleation score of 0.153 ± 0.43.
The same measure for IDPADVGILSCCFLNDSKHE: 0.467 ± 0.46; for MLDGTSCICVVIEA: -0.035 ± 0.21; for SKMCCDMYISISCIIWSARR: 0.352 ± 0.32.
The figure for RSLFKLTENCCIIVSWASDN is 8.848 ± 0.057; for DDVSIL it is 0.14 ± 1; for MFVWVQSRIGKGFGMGFRRW it is -0.307 ± 0.76.
As for GLTLMWALFGSVYGLRSGMG, the amyloid nucleation score turned out to be 0.89 ± 0.28.
The same measure for ILGLFSFPKMPMVDYNIWMR: -0.137 ± 1.1; for LYFSSTYCLLVGKTDQIDCH: “inactive”; for IRCSVVDLCESSADSTSVRP: “inactive”.
The figure for RSFLLVLAELCFT is 4.22 ± 0.12.
The figure for YVDTRLKTSVLFRK is 3.93 ± 0.043; for AANDMPMNSPIFSLGSDMPH it is 1.01 ± 0.48.
Turning to TLKLALEFLNEIYEEPVKCR, the amyloid nucleation score was -1.36 ± 0.48.
The same measure for TVFSYSWQFYGMHSISDYMI: “inactive”; for DTVNWCDSGVP: -0.023 ± 0.65; for FWRVRVFGASLFL: “inactive”.
The same measure for VGRIEGHFYRSDCRQTYLYQ: -0.785 ± 0.74.
The figure for RKVFLRLCLLVWLNG is -0.292 ± 0.3.
SFKYCMMISGGF: the amyloid nucleation score came to 4.503 ± 0.041.
The same measure for GWWVCWVL: -1.07 ± 1.1.
Consider RYIVILSFVRGSWLYFLTRT, for which the amyloid nucleation score was -0.543 ± 0.5.
For SLFTTINARNATAEQCSMQT, the amyloid nucleation score is 0.502 ± 0.21.
The figure for YGRCVDLFCGIRYLHGSRLA is -0.299 ± 1.1; for LSLYIGFYMKGGSCRC it is 0.007 ± 0.79.
The figure for VLSWGFKGNAKPHHTDSLKG is 0.603 ± 0.22.
The figure for KRLVEAVKFWWQVRNGLKVR is 0.518 ± 0.29.
The substance PSSDRMSKCVFRVRNCQEAL yielded an amyloid nucleation score of 0.157 ± 0.55.
The same measure for YSRFYLYMSRRGMRS: -0.122 ± 0.53.
The same measure for SVYEIYWRVT: -0.348 ± 0.65; for LLFMWTWVVVIGRKYANNYF: “inactive”; for SNVSGCMELFNWVGYFPVSP: -0.733 ± 0.62.
With FYYCRALWVYLVTCWHCLSY, the amyloid nucleation score was -0.864 ± 1.1.
The substance CSFSIAFWKS had an amyloid nucleation score of 0.714 ± 0.3.
The same measure for WFDGDQDSNRQTVPIPQLPP: 0.549 ± 0.45; for RTALKYPVSYSRFGSFADES: -0.73 ± 0.41; for KGGNIHSRVTYR: -0.669 ± 0.37.
The figure for SESGR is 1.74 ± 0.21; for YHSTTLTFERAQPSHNNTRL it is 3.32 ± 0.1; for VITEADRLFHWIWKESLGEE it is 4.858 ± 0.035.
The figure for RLIYCVVGRCCNCSFYFTRM is 2.75 ± 0.09; for VNCYTIWVGNSSRSVHSINA it is 5.27 ± 0.083.
With GYTVCRLGCRFVMSLWNILV, the amyloid nucleation score was -0.221 ± 1.1.
The same measure for NRLMVPSTNKFTCLPE: 0.056 ± 0.36.
The figure for FVHVPPILGAAVTVRAASPK is 0.284 ± 1.1; for SLFCVPSSRKVLFLGRTVVV it is 0.123 ± 1; for LRTQSILYLRRMG it is -0.164 ± 0.32.
The same measure for YGGDVSP: 0.1 ± 0.4; for AYMVASMESMDACRVLRLPS: 0.87 ± 0.21.
Regarding SLLLFIYQMDRLVVASMLTN, the amyloid nucleation score was -0.651 ± 1.1.
Consider RVLTGWVVA, for which the amyloid nucleation score turned out to be 0.215 ± 0.76.
The figure for LIFLSDFLLPPSSPARDPYL is -0.719 ± 1.1.
In turn, RVTFNFRGMYKLIIMGGVPP yielded an amyloid nucleation score of 6.49 ± 0.085.
The same measure for KLYLVWPTCGDGCSFGLRAT: -0.194 ± 0.24; for KEVCEKTMFMCSWVK: -0.809 ± 1.1.
The figure for NHHTEDMVK is 0.367 ± 0.32; for DDFRGIAGIWWRG it is 0.785 ± 0.51; for KAAVMRHMSCCCYYHP it is 0.845 ± 0.66.
The figure for FMITWGINRS is 4.02 ± 0.043.
In turn, MSGWVAGLHLDVCGVDYAGG yielded an amyloid nucleation score of 1.9 ± 0.29.
The same measure for CRMSLRYTVPYSVQPLRGSL: 0.156 ± 0.41; for PRGLATRPLFNRVYLHWYLL: -0.639 ± 0.61.
With IFASSYVLSHYILGGHRSRK, the amyloid nucleation score was 2.7 ± 0.1.
The figure for SISSGMVDVAGQLSCTRVSE is 1.65 ± 0.32.
The same measure for YYRRNKIWSVSQQWGGIRSR: 0.596 ± 0.62; for GIVRGYMLSHLFV: 0.262 ± 0.25; for GVMRSCCEIWTFSIVFRMYT: 0.604 ± 0.31.
The figure for TTMYARFIFIVRDSEGMYCS is 7.089 ± 0.064; for SQIRGESSYYCLPSFSLLFF it is 6.215 ± 0.057.
With VDYASGGARGFGMVLRAFLE, the amyloid nucleation score worked out at 0.132 ± 0.42.
The same measure for YLTEALPDRSRYRSTSVMCV: 1.86 ± 0.32.
The same measure for FCCFRVYVDMENLSNSALTL: 7.557 ± 0.033; for WFLHRGSIGYQTAFFCSYLP: -0.208 ± 1.1; for TLQMGQSMPSFFGLRWAVYR: 0.503 ± 0.43.
The same measure for VFMCVGFLLYHMNSELGPRG: 2.88 ± 0.087; for GFRFLLKLLFGFKKV: “inactive”.
Take KIVWCLVYNRDYYLQYRTIS: the amyloid nucleation score was -0.625 ± 0.27.
IVLCWLEGG came in with an amyloid nucleation score of 0.516 ± 0.31.
The same measure for FVRLTRIVESGYYDIFGKIK: -0.429 ± 0.39; for YRDRINSNYFALDFNILLHY: 3.57 ± 0.046.
The figure for SSLEFYVFWYP is -1.14 ± 1; for MFSIYSGYIVKQC it is 0.336 ± 0.74.
The substance SYAESLPLSDYNAVVRFPWT showed an amyloid nucleation score of -0.304 ± 1.1.
Substance IDKICFKTDLIVFCRGLNPC gave an amyloid nucleation score of 1.9 ± 0.19.
The same measure for IYYGGYVNRLNREAFRGCKL: -1.49 ± 0.49; for LLPRCDGGVLVHLNDKSYKL: 1.32 ± 0.39; for SSRQTVGNTPASDLLRDYCW: 0.388 ± 0.38.
The figure for MFLNPQPVFDLISFNVVSTP is 9.306 ± 0.032; for VLNVNDFPNYGRRSCSTNSF it is 3.18 ± 0.17.
Regarding WVGYLRPKKESLCLGFEDSK, the amyloid nucleation score stood at 3.04 ± 0.12.
The same measure for YEVHDDLYYTNKLRTRANGV: 1.46 ± 0.43; for MERIPVVSDMGRLGFSACRL: 0.821 ± 0.23.
The same measure for LMHFSFSVAGRAGNELLFIG: 2.46 ± 0.22.
The figure for FLLSVGSHCMPVHEYGMTNA is 0.445 ± 0.56; for VSLIVYKGHKRGWVYRVSRR it is 0.42 ± 0.65; for IHLLPLPYEVPSLLCTSRGP it is 0.258 ± 0.4.
The substance HSSLFSYREQLYTSFCNIGM showed an amyloid nucleation score of 4.99 ± 0.067.
The figure for WWGGINSVLVTDEWLVRLGK is -0.166 ± 0.19; for LLLNILLCIDPYIPWCLSLR it is 0.974 ± 0.57; for HIGCYAPASISPLLNGEH it is 0.458 ± 0.8.
The figure for RIFQLSTSGN is 0.072 ± 1.1.
The same measure for KCKRLVSKNIRL: -0.342 ± 1; for HYVPDPDITL: -0.504 ± 0.32; for CTWTYE: 5.92 ± 0.077.
As to ADHVDAYSFRDNDLSYQVYL, the amyloid nucleation score was 1.41 ± 0.46.
The figure for SFRQIATLYEKMFNDNGNGI is -0.528 ± 0.37; for VMATLHSLFVYRVDTFMFVE it is 0.358 ± 0.51; for ENHQCGWGLPLCTVVSR it is 6 ± 0.077.
The entry for FLSRIYESLSTVI is “inactive”; for YRYCSCMNLAWERFGNPEGQ it is -0.399 ± 0.46; for AFLRFMKRRQLNLLKYAFCC it is 4.01 ± 0.084.
The same measure for LAYCGYIHDLFGGILIKLDG: -0.081 ± 1.1; for VTRHLVVLNKYKWLGRLSTI: -1.04 ± 0.76; for FIAYMYPMVIWIPMRFLINQ: “inactive”.
TRWSHK: the amyloid nucleation score result is “inactive”.
The figure for LFVLDNMDDIWNSIISWVGR is -0.295 ± 0.65; for MSPVCLCCYLPTRVYCKVSG it is 5.85 ± 0.084.
The figure for SLPCRIISNLYLPA is -1.23 ± 1.1; for INVYRPFYIVRHY it is 5.101 ± 0.044.
